Data reported in patent US8927500.
Several values for one entry are separate records, joined by “and”; a condition that tells them apart may be missing. Equal values may be shown once.

Target: MDM2 (In-house, 41 kD) (UniProt Q00987)
Test: competitive fluorescence polarization, MDM2 with FAM-labeled linear peptide; graded scale of paragraph 458

Sequence of MDM2 (In-house, 41 kD) (Q00987 1-138 limits assumed): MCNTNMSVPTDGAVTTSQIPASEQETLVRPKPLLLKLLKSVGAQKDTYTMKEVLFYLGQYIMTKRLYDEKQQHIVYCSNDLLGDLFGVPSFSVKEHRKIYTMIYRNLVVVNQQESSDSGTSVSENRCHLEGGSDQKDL

Substance	IC50
peptidomimetic macrocycle SP752, Ac-t$r5wya$r5f4CF3ekllr-NH2 (peptide)	> 100 nM and < 1000 nM
peptidomimetic macrocycle SP753, Ac-tawy$r5nf4CF3e$r5llr-NH2 (peptide)	> 10 nM and < 100 nM
peptidomimetic macrocycle SP754, Ac-tawya$r5f4CF3ek$r5lr-NH2 (peptide)	> 100 nM and < 1000 nM
peptidomimetic macrocycle SP755, Ac-tawyanf4CF3e$r5llr$r5a-NH2 (peptide)	< 10 nM
peptidomimetic macrocycle SP756, Ac-t$s8wyanf4CF3e$r5llr-NH2 (peptide)	> 10 nM and < 100 nM
peptidomimetic macrocycle SP757, Ac-tawy$s8nf4CF3ekll$r5a-NH2 (peptide)	< 10 nM
peptidomimetic macrocycle SP758, Ac-tawya$s8f4CF3ekllr$r5a-NH2 (peptide)	> 10 nM and < 100 nM
